Reference: patent US20260234247A1 (published 2026)
Values belong to the binder of their own block, whether it stands above or below them.

Key:
human LILRB4 [1] = target: T1, human LILRB4 (human, UniProt Q8NHJ6 22-259); experiment: ELISA, OD450, antibody at 200 nM; + = 2-fold over ISO
T1 construct: bought protein coated for ELISA; also called hLILRB4
Procedure: (§1) To further confirm binding affinity, selected clones were assayed in ELISA or FACS in a range of testing concentrations.

human LILRA4 [2] = target: T2, human LILRA4 (human, UniProt P59901 24-446); experiment: as above
T2 construct: bought protein coated for ELISA; also called hLILRA4
T2 sequence (P59901 24-446 limits assumed): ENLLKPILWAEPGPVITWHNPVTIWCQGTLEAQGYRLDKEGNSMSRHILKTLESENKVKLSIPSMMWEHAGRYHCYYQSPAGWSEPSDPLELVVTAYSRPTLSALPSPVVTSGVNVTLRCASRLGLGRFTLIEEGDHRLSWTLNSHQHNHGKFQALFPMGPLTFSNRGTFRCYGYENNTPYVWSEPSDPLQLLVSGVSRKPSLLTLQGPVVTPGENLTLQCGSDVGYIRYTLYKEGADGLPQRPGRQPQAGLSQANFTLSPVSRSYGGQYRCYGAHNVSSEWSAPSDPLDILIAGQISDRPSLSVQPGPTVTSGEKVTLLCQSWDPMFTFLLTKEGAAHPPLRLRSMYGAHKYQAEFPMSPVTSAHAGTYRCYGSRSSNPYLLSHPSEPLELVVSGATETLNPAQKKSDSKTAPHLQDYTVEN
Procedure: as §1

human LILRA2 [3] = target: T3, human LILRA2 (human, UniProt Q8N149 24-449); experiment: ELISA, antibody at 200 nM, OD450; + = 2-fold over ISO
T3 construct: Bought protein; also called hLILRA2
T3 sequence (Q8N149 24-449 limits assumed): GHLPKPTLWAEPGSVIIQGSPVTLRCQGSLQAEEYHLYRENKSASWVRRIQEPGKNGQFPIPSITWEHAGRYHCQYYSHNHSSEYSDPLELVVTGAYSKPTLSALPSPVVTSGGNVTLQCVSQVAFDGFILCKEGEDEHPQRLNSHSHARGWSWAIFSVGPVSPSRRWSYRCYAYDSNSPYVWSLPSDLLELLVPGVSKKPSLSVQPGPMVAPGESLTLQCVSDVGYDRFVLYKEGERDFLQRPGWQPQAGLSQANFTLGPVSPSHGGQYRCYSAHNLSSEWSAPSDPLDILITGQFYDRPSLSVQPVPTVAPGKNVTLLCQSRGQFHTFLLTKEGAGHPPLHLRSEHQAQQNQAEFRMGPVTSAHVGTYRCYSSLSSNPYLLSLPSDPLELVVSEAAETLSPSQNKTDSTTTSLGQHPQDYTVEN
Procedure: as §1

[4] = target: T4, human LILRA2 on CHOK1-human LILRA2 cell line (human, UniProt Q8N149 24-483); experiment: flow cytometry on CHOK1-human LILRA2 cell line (FIG. 2A)
T4 construct: whole, on cells

human LILRA2 [5] = target: T5, human LILRA2 (human, UniProt Q8N149 24-449); experiment: ELISA, OD450, antibody at 200 nM; + = 2-fold over ISO
T5 construct: bought protein coated for ELISA; also called hLILRA2
T5 sequence (Q8N149 24-449 limits assumed): as above
Procedure: as §1

human LILRB3 = target: T6, human LILRB3 (human, UniProt O75022 24-443); experiment: as above
T6 construct: bought protein coated for ELISA; also called hLILRB3
Procedure: as §1

human LILRA3 = target: T7, human LILRA3 (human, UniProt Q8N6C8 24-439); experiment: ELISA, antibody at 200 nM, OD450; + = 2-fold over ISO
T7 construct: Bought protein; also called hLILRA3
Procedure: as §1

human LILRA1 = target: T8, human LILRA1 (human, UniProt O75019 17-461, limits assumed); experiment: as above
T8 construct: Bought protein; also called hLILRA1
Procedure: as §1

human LILRB4 [6] = target: T9, human LILRB4 (human, UniProt Q8NHJ6 22-259); experiment: as above
T9 construct: Bought protein; also called hLILRB4
Procedure: as §1

human LILRA5 = target: T10, human LILRA5 (human, UniProt A6NI73 42-268, limits assumed); experiment: as above
T10 construct: Bought protein; also called hLILRA5
Procedure: as §1

human LILRA4 [7] = target: T11, human LILRA4 (human, UniProt P59901 24-446); experiment: as above
T11 construct: Bought protein; also called hLILRA4
T11 sequence (P59901 24-446 limits assumed): as the sequence (P59901 24-446 limits assumed) above
Procedure: as §1

human LILRB5 = target: T12, human LILRB5 (human, UniProt O75023 24-458); experiment: as above
T12 construct: Bought protein; also called hLILRB5
T12 sequence (O75023 24-458 limits assumed): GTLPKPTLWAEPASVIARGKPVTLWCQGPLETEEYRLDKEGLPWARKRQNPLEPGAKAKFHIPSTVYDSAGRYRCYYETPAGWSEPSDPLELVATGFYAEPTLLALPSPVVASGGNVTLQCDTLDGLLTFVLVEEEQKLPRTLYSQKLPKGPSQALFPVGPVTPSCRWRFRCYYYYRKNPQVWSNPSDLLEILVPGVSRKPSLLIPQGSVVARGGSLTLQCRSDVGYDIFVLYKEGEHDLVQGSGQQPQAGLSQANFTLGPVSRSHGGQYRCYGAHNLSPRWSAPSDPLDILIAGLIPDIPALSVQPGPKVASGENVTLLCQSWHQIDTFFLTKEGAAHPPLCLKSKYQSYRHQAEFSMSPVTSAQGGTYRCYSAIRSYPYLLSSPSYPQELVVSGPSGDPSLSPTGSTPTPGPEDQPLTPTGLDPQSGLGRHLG
Procedure: as §1

T10 sequence (A6NI73 42-268 limits assumed): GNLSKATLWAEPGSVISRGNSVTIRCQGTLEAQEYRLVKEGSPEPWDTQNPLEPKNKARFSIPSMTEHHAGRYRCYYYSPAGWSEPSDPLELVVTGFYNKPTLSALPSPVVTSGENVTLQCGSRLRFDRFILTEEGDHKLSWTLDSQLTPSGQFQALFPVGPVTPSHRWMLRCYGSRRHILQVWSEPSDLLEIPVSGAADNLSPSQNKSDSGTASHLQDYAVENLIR
T8 sequence (O75019 17-461 limits assumed): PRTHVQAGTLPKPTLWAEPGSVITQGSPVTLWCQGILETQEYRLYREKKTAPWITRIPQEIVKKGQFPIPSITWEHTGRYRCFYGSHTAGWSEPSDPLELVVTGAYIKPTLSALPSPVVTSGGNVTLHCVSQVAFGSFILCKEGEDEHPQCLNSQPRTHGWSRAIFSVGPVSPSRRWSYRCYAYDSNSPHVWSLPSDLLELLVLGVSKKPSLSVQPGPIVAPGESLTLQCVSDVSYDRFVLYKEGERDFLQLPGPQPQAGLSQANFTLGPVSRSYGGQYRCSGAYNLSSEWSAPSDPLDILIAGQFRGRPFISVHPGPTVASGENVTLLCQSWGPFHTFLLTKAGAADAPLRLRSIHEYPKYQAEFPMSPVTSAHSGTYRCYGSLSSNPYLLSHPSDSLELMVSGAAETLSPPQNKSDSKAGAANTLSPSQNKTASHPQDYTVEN
T4 sequence (Q8N149 24-483): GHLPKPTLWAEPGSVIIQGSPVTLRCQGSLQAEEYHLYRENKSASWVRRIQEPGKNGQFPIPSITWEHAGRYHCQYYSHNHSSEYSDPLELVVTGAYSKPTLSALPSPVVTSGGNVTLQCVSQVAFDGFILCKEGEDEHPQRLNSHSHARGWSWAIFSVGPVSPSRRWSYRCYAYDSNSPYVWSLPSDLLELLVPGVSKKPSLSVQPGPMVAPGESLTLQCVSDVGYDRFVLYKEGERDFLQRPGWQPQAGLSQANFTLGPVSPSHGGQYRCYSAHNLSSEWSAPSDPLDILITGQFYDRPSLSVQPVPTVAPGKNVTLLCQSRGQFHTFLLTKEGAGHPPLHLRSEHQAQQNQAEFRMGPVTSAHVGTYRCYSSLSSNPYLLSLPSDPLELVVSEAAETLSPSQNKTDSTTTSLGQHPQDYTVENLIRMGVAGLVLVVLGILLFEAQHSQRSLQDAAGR
T7 sequence (Q8N6C8 24-439 limits assumed): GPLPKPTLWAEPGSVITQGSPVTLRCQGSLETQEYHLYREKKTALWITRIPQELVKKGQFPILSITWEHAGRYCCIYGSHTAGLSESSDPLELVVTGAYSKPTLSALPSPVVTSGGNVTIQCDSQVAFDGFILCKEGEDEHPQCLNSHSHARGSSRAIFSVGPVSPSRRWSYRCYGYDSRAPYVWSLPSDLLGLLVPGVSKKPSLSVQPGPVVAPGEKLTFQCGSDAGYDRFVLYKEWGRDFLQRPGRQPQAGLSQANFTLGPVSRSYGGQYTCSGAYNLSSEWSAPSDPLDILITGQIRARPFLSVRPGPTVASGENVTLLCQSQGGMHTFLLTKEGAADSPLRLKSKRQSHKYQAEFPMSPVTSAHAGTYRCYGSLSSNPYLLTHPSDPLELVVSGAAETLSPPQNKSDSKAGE

B1: LK-RB1-1 (antibody, human IgG4 S228P, kappa, V domains shown)
VH: QIQLVQSGPELKKPGETVKISCKASGYSFTNFGMSWVKQAPGKALKWMGWINTYSGVPTYADDFKGRFAFSLETSANTAYLQINNLKNEDSATYFCARRRRTFDGYLCFDYWGQGATLTVSS
VL: QLVLTQSSSASFSLGASAKLTCTLSSQHSTYSIDWYQQQPLKPPKYVMELKTDGSHRTGDGIPDRFSGSSSGADRYLSISNIQPEDEAIYICGVGDTIKEQFVYVFGGGTKVTVLR
notes: anti-LILRB1 antibody
binding result (human LILRB4 [1]): binds
binding result (human LILRA4 [2]): binds

B2: LK-RB2-10 (antibody, human IgG4 S228P, kappa, V domains shown)
VH: EVMLVESGGDLVKPGGSLKLSCAASGFTFSANTVSWLRRTPERRLEWVATISGGSDNTYCPDSVKGRFTISRDNARDTLYLQMSSLTSEDTALYFCARHYYDGPNWYFDVWGPGTTVTVSS
VL: DIVMTQSQKFMSSTGGDRVTITCKASQNVDTAVAWYQQKPGQSPKLLIYSASNRYIGVPDRFKGSGSGTDFSLTITNIQSEDLAEYFCQQYSSYPLTFGAGTKLELKR
binding result (human LILRA2 [3]): binds

B4: LK-RB1-5 (antibody, human IgG4 S228P, kappa, V domains shown)
VH: QVQLQQPGAELVKPGASVKLSCKASGYTFTDFWIHWVKQRPGQGLEWIGMIHPNSGSTNFNEKFRAKATLTVDKSSSTAYMRLSSLTSEDSAVYYCARSGDGYSNPMDYWGQGTSVTVSS
VL: QIVLSQSPAILSASPGEKVTLTCRASSSVSYMHWYQQKPGSSPKPWIYATSNLASGVPVRFSGSGSGTSYSLTISRMQTEDAATYYCQQWRRSPYTFGGGTKLEIKR
notes: anti-LILRB1 antibody
binding result (human LILRA2 [5]): binds
binding result (human LILRB3): binds

B5: LK-RB2-8 (antibody, human IgG4 S228P, kappa, V domains shown)
VH: QIQLVQSGPELKKPGETVKISCKASGYSFASYGMGWVKQAPGKGLKWLGWINTHSGVPTYADDFKGRFAFSLETSASTAYLQINNLKNEDTATYFCAHYGRPWFPYWGQGTLVTVSA
VL: DIQMTQSPASLSASVGETVTITCRTSENIYSYLAWYQQKQGKSPQLLVYNAKSLAEGVPSRFSGSGSGTQFSLRINSLQPEDFGTYYCQQHYETPLTFGAGTKLELKR
binding result (human LILRA3): binds
binding result (human LILRA1): binds
binding result (human LILRB4 [6]): binds
binding result (human LILRA5): binds

The remaining lines, values ahead:

binding result [4]: no binding
B3: hz73D1.v1 (antibody, human IgG4 S228P, kappa, V domains shown)
VH: QVQLVQSGAEVKKPGASVKVSCKASGYTFTDYYINWVRQAPGQGLEWMGNVNPNDGGTTYNQKFKGRVTMTTDTSTSTAYMELRSLRSDDTAVYYCARREIYFYGTIYYYAMDYWGQGTLVTVSS
VL: DIQLTQSPSFLSASVGDRVTITCRASESVDYYGNSFMYWYQQKPGKAPKLLIYFASNLESGVPSRFSGSGSGTEFTLTISSLQPEDFATYYCQQNNEDPWTFGGGTKVEIKR

binding result (human LILRA4 [7]): binds
binding result (human LILRB5): binds
B6: LK-RB2-16 (antibody, human IgG4 S228P, kappa, V domains shown)
VH: QIQLVQSGPELKKPGETVKISCKASGYTFTTYGMGWVKQAPEKGLKWMGWINTNSGAPTYGDDFKGRFAFSLETSASTAYLQINNLKNEDTATYFCAHYGRPWFAYWGQGTLVTVSA
VL: DIQMTQSPASLSASVGETVTITCRASENIYSYLAWYHQKQGESPQLLVYNAKTLAEGVPSRFSGSGSGTQFSLKINSLQPEDFGSYYCQHHYNIPLTFGAGTKLELKR
